Test results as given in article doi:10.1101/2023.02.09.527830.

Target: Lassa virus nucleoprotein NP (WT) (Lassa virus (AV strain), UniProt Q9DQX7)
Assay: native MS

Binder	binding result
UAGGAAUCU (ssRNA) [9 nt RNA]	binds
ACACAAAGACCC (ssRNA) [12 nt RNA]	binds
